This is an account of results in PMC3385512.

Substrate in the data set: Nc1ncnc2c1ncn2[C@@H]1O[C@H](COP(=O)(O)OP(=O)(O)OP(=O)(O)O)[C@@H](O)[C@H]1O
Put plainly: purified protein, by the assay type.

B1: ALK (V1058-P1620) G1202R (Homo sapiens; G1202R) (protein)
chain: VYRRKHQELQAMQMELQSPEYKLSKLRTSTIMTDYNPNYCFAGKTSSISDLKEVPRKNITLIRGLGHGAFGEVYEGQVSGMPNDPSPLQVAVKTLPEVCSEQDELDFLMEALIISKFNHQNIVRCIGVSLQSLPRFILLELMAGRDLKSFLRETRPRPSQPSSLAMLDLLHVARDIACGCQYLEENHFIHRDIAARNCLLTCPGPGRVAKIGDFGMARDIYRASYYRKGGCAMLPVKWMPPEAFMEGIFTSKTDTWSFGVLLWEIFSLGYMPYPSKSNQEVLEFVTSGGRMDPPKNCPGPVYRIMTQCWQHQPEDRPNFAIILERIEYCTQDPDVINTALPIEYGPLVEEEEKVPVRPKDPEGVPPLLVSQQAKREEERSPAAPPPLPTTSSGKAAKKPTAAEISVRVPRGPAVEGGHVNMAFSQSNPPSELHKVHGSRNKPTSLWNPTYGSWFTEKPTKKNNPIAKKEPHDRGNLGLEGSCTVPPNVATGRLPGASLLLEPSSLTANMKEVPLFRLRHFPCGNVNYGYQQQGLPLEAATAPGAGHYEDTILKSKNSMNQPGP
As for B1, the Michaelis constant (Km) (other: ALK G1202R) was found to be 23 µM.

B2: ALK (V1058-P1620) S1206Y (Homo sapiens; S1206Y) (protein)
chain: VYRRKHQELQAMQMELQSPEYKLSKLRTSTIMTDYNPNYCFAGKTSSISDLKEVPRKNITLIRGLGHGAFGEVYEGQVSGMPNDPSPLQVAVKTLPEVCSEQDELDFLMEALIISKFNHQNIVRCIGVSLQSLPRFILLELMAGGDLKYFLRETRPRPSQPSSLAMLDLLHVARDIACGCQYLEENHFIHRDIAARNCLLTCPGPGRVAKIGDFGMARDIYRASYYRKGGCAMLPVKWMPPEAFMEGIFTSKTDTWSFGVLLWEIFSLGYMPYPSKSNQEVLEFVTSGGRMDPPKNCPGPVYRIMTQCWQHQPEDRPNFAIILERIEYCTQDPDVINTALPIEYGPLVEEEEKVPVRPKDPEGVPPLLVSQQAKREEERSPAAPPPLPTTSSGKAAKKPTAAEISVRVPRGPAVEGGHVNMAFSQSNPPSELHKVHGSRNKPTSLWNPTYGSWFTEKPTKKNNPIAKKEPHDRGNLGLEGSCTVPPNVATGRLPGASLLLEPSSLTANMKEVPLFRLRHFPCGNVNYGYQQQGLPLEAATAPGAGHYEDTILKSKNSMNQPGP
On to B2, for which the Michaelis-Menten constant (Km) (other: ALK S1206Y) is 20 µM.
